Results on 21 molecules are retold here after patent US20230220042A1 (SHANGHAI JIAO TONG UNIVERSITY SCHOOL OF MEDICINE, published 2023).

Substitutions are numbered along the chain they refer to. Names and notes keep the numbering of the source.

First the molecules themselves.
B1: anti-human OX40 antibody, human IgG2 Fc mutant Mut_8 (V266L/L328W) (antibody, name in EU numbering)
heavy: QVQLQESGPGLVKPSGTLSLTCAVSGGSISSSIWWSWVRQPPGKGLEWIGEIHHSGNTNCNPSLKSRVTISIDKSKNQFSLKLTSVTAADTAVYYCARAGTGTTLDYWGQGTLVTVSSASTKGPSVFPLAPCSRSTSESTAALGCLVKDYFPEPVTVSWNSGALTSGVHTFPAVLQSSGLYSLSSVVTVPSSNFGTQTYTCNVDHKPSNTKVDKTVERKCCVECPPCPAPPVAGPSVFLFPPKPKDTLMISRTPEVTCVVVDLSHEDPEVQFNWYVDGVEVHNAKTKPREEQFNSTFRVVSVLTVVHQDWLNGKEYKCKVSNKGWPAPIEKTISKTKGQPREPQVYTLPPSREEMTKNQVSLTCLVKGFYPSDIAVEWESNGQPENNYKTTPPMLDSDGSFFLYSKLTVDKSRWQQGNVFSCSVMHEALHNHYTQKSLSLSPGK
light: EIVLTQSPGTLSLSPGERATLSCRASQSVSGDYLAWYQQKLGQAPRLLIYGASIRATGIPDRFSGSGSGTDFTLTISKLEPEDFAVYYCQQYGSSPLTFGGGTKVEIKRTVAAPSVFIFPPSDEQLKSGTASVVCLLNNFYPREAKVQWKVDNALQSGNSQESVTEQDSKDSTYSLSSTLTLSKADYEKHKVYACEVTHQGLSSPVTKSFNRGEC
B2: anti-human OX40 antibody, human IgG2 Fc mutant Mut_22 (V266L/S267M/H268E/P271Q) (antibody, name in EU numbering)
heavy: B1 heavy with S264M, H265E, P268Q, W325L
light: B1 light
B3: anti-human OX40 antibody, human IgG2 Fc mutant Mut_19 (V266L/S267E/H268S/E269V/P271C) (antibody, name in EU numbering)
heavy: B1 heavy with S264E, H265S, E266V, P268C, W325L
light: B1 light
B4: anti-human OX40 antibody, human IgG2 Fc mutant Mut_2 (H268D/S298L/L328W) (antibody, name in EU numbering)
heavy: B1 heavy with L263V, H265D, S295L
light: B1 light
B5: human IgG2 anti-mouse CD40 surface displayed antibody, Fc mutant A330R (antibody, name in EU numbering)
light chain (with the P2A rest): DTVLTQSPALAVSPGERVTISCRASDSVSTLMHWYQQKPGQQPKLLIYLASHLESGVPARFSGSGSGTDFTLTIDPVEADDTATYYCQQSWNDPWTFGGGTKLELKRTVAAPSVFIFPPSDEQLKSGTASVVCLLNNFYPREAKVQWKVDNALQSGNSQESVTEQDSKDSTYSLSSTLTLSKADYEKHKVYACEVTHQGLSSPVTKSFNRGECGSGATNFSLLKQAGDVEENPG
heavy chain: EVQLVESDGGLVQPGRSLKLPCAASGFTFSDYYMAWVRQAPTKGLEWVASISYDGSSTYYRDSVKGRFTISRDNAKSTLYLQMDSLRSEDTATYYCGRHSSYFDYWGQGVMVTVSSASTKGPSVFPLAPCSRSTSESTAALGCLVKDYFPEPVTVSWNSGALTSGVHTFPAVLQSSGLYSLSSVVTVPSSNFGTQTYTCNVDHKPSNTKVDKTVERKCCVECPPCPAPPVAGPSVFLFPPKPKDTLMISRTPEVTCVVVDVSHEDPEVQFNWYVDGVEVHNAKTKPREEQFNSTFRVVSVLTVVHQDWLNGKEYKCKVSNKGLPRPIEKTISKTKGQPREPQVYTLPPSREEMTKNQVSLTCLVKGFYPSDIAVEWESNGQPENNYKTTPPMLDSDGSFFLYSKLTVDKSRWQQGNVFSCSVMHEALHNHYTQKSLSLSPGKLEPPPSTVSNMATVAVLVVLGAAIVTGAVVAFVMKMRRRNTGGKGGDYALAPGSQTSDLSLPDCKVMVHDPHSLA
notes: as m1; positions are Eu numbers; copies: 2 + 2
B6: human IgG2 anti-mouse CD40 surface displayed antibody, Fc mutant S298N (antibody, name in EU numbering)
light chain (with the P2A rest): B5 light chain (with the P2A rest)
heavy chain: B5 heavy chain with S293N, R325A
notes: as for B5
B7: human IgG2 anti-mouse CD40 surface displayed antibody, Fc mutant S298E (antibody, name in EU numbering)
light chain (with the P2A rest): B5 light chain (with the P2A rest)
heavy chain: B5 heavy chain with S293E, R325A
notes: as for B5
B8: human IgG2 anti-mouse CD40 surface displayed antibody, Fc mutant P331T (antibody, name in EU numbering)
light chain (with the P2A rest): B5 light chain (with the P2A rest)
heavy chain: B5 heavy chain with R325A, P326T
notes: as for B5
B9: human IgG2 anti-mouse CD40 surface displayed antibody, Fc mutant I332A (antibody, name in EU numbering)
light chain (with the P2A rest): B5 light chain (with the P2A rest)
heavy chain: B5 heavy chain with R325A, I327A
notes: as for B5
B10: human IgG2 anti-mouse CD40 surface displayed antibody, Fc mutant L328E (antibody, name in EU numbering)
light chain (with the P2A rest): B5 light chain (with the P2A rest)
heavy chain: B5 heavy chain with L323E, R325A
notes: as for B5
B11: human IgG2 anti-mouse CD40 surface displayed antibody, Fc mutant P271C (antibody, name in EU numbering)
light chain (with the P2A rest): B5 light chain (with the P2A rest)
heavy chain: B5 heavy chain with P266C, R325A
notes: as for B5
B12: human IgG2 anti-mouse CD40 surface displayed antibody, Fc mutant S267M (antibody, name in EU numbering)
light chain (with the P2A rest): B5 light chain (with the P2A rest)
heavy chain: B5 heavy chain with S262M, R325A
notes: as for B5
B13: human IgG2 anti-mouse CD40 surface displayed antibody, Fc mutant G327A (antibody, name in EU numbering)
light chain (with the P2A rest): B5 light chain (with the P2A rest)
heavy chain: B5 heavy chain with G322A, R325A
notes: as for B5
B14: human IgG2 anti-mouse CD40 surface displayed antibody, Fc mutant S298L (antibody, name in EU numbering)
light chain (with the P2A rest): B5 light chain (with the P2A rest)
heavy chain: B5 heavy chain with S293L, R325A
notes: as for B5
B15: human IgG2 anti-mouse CD40 surface displayed antibody, Fc mutant I332C (antibody, name in EU numbering)
light chain (with the P2A rest): B5 light chain (with the P2A rest)
heavy chain: B5 heavy chain with R325A, I327C
notes: as for B5
B16: human IgG2 anti-mouse CD40 surface displayed antibody, Fc mutant V266A (antibody, name in EU numbering)
light chain (with the P2A rest): B5 light chain (with the P2A rest)
heavy chain: B5 heavy chain with V261A, R325A
notes: as for B5
B17: human IgG2 anti-mouse CD40 surface displayed antibody, Fc mutant P331C (antibody, name in EU numbering)
light chain (with the P2A rest): B5 light chain (with the P2A rest)
heavy chain: B5 heavy chain with R325A, P326C
notes: as for B5
B18: human IgG2 anti-mouse CD40 surface displayed antibody, Fc mutant S267A (antibody, name in EU numbering)
light chain (with the P2A rest): B5 light chain (with the P2A rest)
heavy chain: B5 heavy chain with S262A, R325A
notes: as for B5
B19: human IgG2 anti-mouse CD40 surface displayed antibody, Fc mutant L328E/I332T (antibody, name in EU numbering)
light chain (with the P2A rest): B5 light chain (with the P2A rest)
heavy chain: B5 heavy chain with L323E, R325A, I327T
notes: as for B5
B20: human IgG2 anti-mouse CD40 surface displayed antibody, Fc mutant S298K (antibody, name in EU numbering)
light chain (with the P2A rest): B5 light chain (with the P2A rest)
heavy chain: B5 heavy chain with S293K, R325A
notes: as for B5

Sequence of human OX40 (human) (P43489 29-277): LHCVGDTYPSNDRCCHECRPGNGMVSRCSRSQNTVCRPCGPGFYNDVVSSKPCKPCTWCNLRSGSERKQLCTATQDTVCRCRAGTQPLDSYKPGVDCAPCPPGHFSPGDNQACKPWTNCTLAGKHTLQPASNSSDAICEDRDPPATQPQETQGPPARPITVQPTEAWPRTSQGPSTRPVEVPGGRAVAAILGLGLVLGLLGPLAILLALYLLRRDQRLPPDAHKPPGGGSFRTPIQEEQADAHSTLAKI

The first assay has as its target human OX40 (human) (UniProt P43489). In words: cell-based or functional assay.
Molecule Ctrl hIgG (antibody) gave an Average increased factor of the activity over wild-type IgG2 of two experiments of 0.65; an Experiment 1 CFSE fluorescence intensity, 0.01 µg/ml of 1020; an Experiment 1 CFSE fluorescence intensity, 0.1 µg/ml of 1080; an Experiment 1 CFSE fluorescence intensity, 1 µg/ml of 1070. The molecule also gave an Experiment 2 CFSE fluorescence intensity, 0.1 µg/ml of 2730 and an Experiment 2 CFSE fluorescence intensity, 1 µg/ml of 2590.
B1 displayed an Average increased factor of the activity over wild-type IgG2 of two experiments of 12.3; an Average relative activity of two experiments of 0.54; an Experiment 1 CFSE fluorescence intensity, 0.01 µg/ml of 844; an Experiment 1 CFSE fluorescence intensity, 0.1 µg/ml of 719. Moreover, the Experiment 1 CFSE fluorescence intensity, 1 µg/ml worked out at 799; the Experiment 1 average relative activity was determined as 0.46; the Experiment 1 relative activity, 0.01 µg/ml was determined as 0.36; the Experiment 1 relative activity, 0.1 µg/ml turned out to be 0.59. The Experiment 1 relative activity, 1 µg/ml amounted to 0.44; the Experiment 2 CFSE fluorescence intensity, 0.1 µg/ml was found to be 1810; the Experiment 2 CFSE fluorescence intensity, 1 µg/ml is 1440; the Experiment 2 average relative activity is 0.65. This molecule also came in with an Experiment 2 relative activity, 0.1 µg/ml of 0.55 and an Experiment 2 relative activity, 1 µg/ml of 0.75.
B2 gave an Average increased factor of the activity over wild-type IgG2 of two experiments of 9.9; an Average relative activity of two experiments of 0.43; an Experiment 2 CFSE fluorescence intensity, 0.1 µg/ml of 2290; an Experiment 2 CFSE fluorescence intensity, 1 µg/ml of 1790. Further, the Experiment 2 average relative activity came to 0.43; the Experiment 2 relative activity, 0.1 µg/ml was determined as 0.3; the Experiment 2 relative activity, 1 µg/ml was 0.56.
As to B3, the Average increased factor of the activity over wild-type IgG2 of two experiments came out at 10.5; the Average relative activity of two experiments is 0.46; the Experiment 1 CFSE fluorescence intensity, 0.01 µg/ml came out at 880; the Experiment 1 CFSE fluorescence intensity, 0.1 µg/ml was found to be 735. The molecule also returned an Experiment 1 CFSE fluorescence intensity, 1 µg/ml of 824; an Experiment 1 average relative activity of 0.42; an Experiment 1 relative activity, 0.01 µg/ml of 0.3; an Experiment 1 relative activity, 0.1 µg/ml of 0.56. The molecule further yielded an Experiment 1 relative activity, 1 µg/ml of 0.4; an Experiment 2 CFSE fluorescence intensity, 0.1 µg/ml of 2090; an Experiment 2 CFSE fluorescence intensity, 1 µg/ml of 1670; an Experiment 2 average relative activity of 0.52. This molecule also registered an Experiment 2 relative activity, 0.1 µg/ml of 0.41 and an Experiment 2 relative activity, 1 µg/ml of 0.63.
Take B4: the Average increased factor of the activity over wild-type IgG2 of two experiments was 16.5; the Average relative activity of two experiments came to 0.72; the Experiment 1 CFSE fluorescence intensity, 0.01 µg/ml is 685; the Experiment 1 CFSE fluorescence intensity, 0.1 µg/ml amounted to 654. Also, the Experiment 1 CFSE fluorescence intensity, 1 µg/ml amounted to 677; the Experiment 1 average relative activity amounted to 0.67; the Experiment 1 relative activity, 0.01 µg/ml was 0.65; the Experiment 1 relative activity, 0.1 µg/ml is 0.71. This molecule also yielded an Experiment 1 relative activity, 1 µg/ml of 0.66; an Experiment 2 CFSE fluorescence intensity, 0.1 µg/ml of 1550; an Experiment 2 CFSE fluorescence intensity, 1 µg/ml of 1150; an Experiment 2 average relative activity of 0.8. The molecule also gave an Experiment 2 relative activity, 0.1 µg/ml of 0.69 and an Experiment 2 relative activity, 1 µg/ml of 0.9.

Another assay deals with T1, Biotin-FcγRIIB (human, UniProt P31994 43-217, limits assumed, biotin-labelled).
T1 construct: Bought, biotin-labelled; used at 1 µg/ml for staining and sorting; also called human FcγRIIB; CD32b
T1 sequence (looked up): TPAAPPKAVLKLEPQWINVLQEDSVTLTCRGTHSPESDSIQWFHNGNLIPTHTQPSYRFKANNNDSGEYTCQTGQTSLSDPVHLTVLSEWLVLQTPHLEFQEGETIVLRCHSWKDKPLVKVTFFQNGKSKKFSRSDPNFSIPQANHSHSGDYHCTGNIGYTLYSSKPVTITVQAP
The assay can be described thus: FACS sorting of displayed Fc library on biotin-FcγRIIB, NGS.
As for B5, the “Increased factor b Site 2 (point mutation/wild-type)” value amounted to 0.
Still for that read-out and setting: the value for B6 was 2.3.
Still for that read-out and setting: the value for B7 was 7.1.
In the case of B8, the “Increased factor b Site 2 (point mutation/wild-type)” value was 0.1.
Same read-out and setting: for B9 the value was 16.4.
Regarding B10, the “Increased factor b Site 1 (point mutation/wild-type)” value amounted to 0.1.
Regarding B11, the “Increased factor b Site 2 (point mutation/wild-type)” value turned out to be 29.9.
As for B12, the “Increased factor b Site 1 (point mutation/wild-type)” value stood at 2.6.
Still for that read-out and setting: for B13 the value was 3.4.
Regarding B14, the “Increased factor b Site 2 (point mutation/wild-type)” value came out at 2.9.
B15: the “Increased factor b Site 2 (point mutation/wild-type)” value was 2.7.
For B16, the “Increased factor b Site 1 (point mutation/wild-type)” value is 3.1.
Take B17: the “Increased factor b Site 2 (point mutation/wild-type)” value is 0.2.
B18: the “Increased factor b Site 1 (point mutation/wild-type)” value turned out to be 5.5.
On to B19, for which the “Enrichment factor (after/before sorting)” value amounted to 55.1 and the “Increased factor a (enrichment factor/wild-type enrichment factor)” value was determined as 36.9.
For B20, the “Increased factor b Site 2 (point mutation/wild-type)” value was 4.4.
